T1: LSF (Late SV40 factor 3) (human, UniProt Q12800 1-502)
T1 sequence: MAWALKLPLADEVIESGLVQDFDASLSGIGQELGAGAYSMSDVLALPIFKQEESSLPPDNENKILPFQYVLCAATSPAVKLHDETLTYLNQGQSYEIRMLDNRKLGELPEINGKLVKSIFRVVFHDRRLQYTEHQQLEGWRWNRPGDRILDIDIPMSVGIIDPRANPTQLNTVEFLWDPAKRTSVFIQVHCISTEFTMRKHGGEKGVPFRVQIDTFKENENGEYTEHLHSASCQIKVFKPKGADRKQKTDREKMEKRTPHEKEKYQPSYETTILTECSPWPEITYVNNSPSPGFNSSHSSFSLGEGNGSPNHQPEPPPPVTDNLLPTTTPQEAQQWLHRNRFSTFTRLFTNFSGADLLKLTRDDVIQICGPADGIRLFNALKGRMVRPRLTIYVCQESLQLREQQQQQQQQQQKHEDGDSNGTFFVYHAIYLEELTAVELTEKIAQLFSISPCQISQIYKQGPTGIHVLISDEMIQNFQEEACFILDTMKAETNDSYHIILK

B1: p21 promoter #2 (dsDNA)
DNA 1: GCTGGAACTCGGCCAGGCTCAGCTGGCTCGG
DNA 2: AGCGCCGAGCCAGCTGAGCCTGGCCGAGTTC
B2: p21 promoter #1 (dsDNA)
DNA 1: GCACGCGAGGTTCCGGGACCGGCTGGCCTGC
DNA 2: TCCAGCAGGCCAGCCGGTCCCGGAACCTCGC
B3: p21 promoter #1 mutant (dsDNA)
DNA 1: GCACGCGAGGTTACGTGACCGTATGTCCTGC
DNA 2: TCCAGCAGGACATACGGTCACGTAACCTCGC
B4: p21 promoter #4 (dsDNA)
DNA 1: GCCTCCTTGAGGCGGGCCCGGGCGGGGCGGT
DNA 2: TACAACCGCCCCGCCCGGGCCCGCCTCAAGG
B5: p21 promoter #3 (dsDNA)
DNA 1: GCTGGCTCGGCGCTGGGCAGCCAGGAGCCT
DNA 2: GCCCAGGCTCCTGGCTGCCCAGCGCCGAGCC
B6: p21 promoter #4 mutant (dsDNA)
DNA 1: GCCTCCTTGAGTAGGTCCCGGTAGGTGCGGT
DNA 2: TACAACCGCACCTACCGGGACCTACTCAAGG

Biological target: T1, LSF (Late SV40 factor 3)
Assay: EMSA; LightShift Chemiluminescent EMSA kit per manufacturer; 7% PAGE in 0.5x TBE; binding buffer, pH and temperature not stated
Settings: protein: ivt, tags: FLAG, chain copies: 4, label: biotin end label
[1] = 5' overhangs 4 nt on both strands

Binder	binding result [1]	binding result (5' overhangs 3 nt (top) and 4 nt (bottom))
B1	binds	–
B2	binds	–
B3	no binding	–
B4	binds	–
B5	–	binds
B6	no binding	–
